The values below come from patent publication US20090148464A1.

As usually defined, the Kd is the free concentration of one partner at which half of the binding sites on the other are occupied at equilibrium, for simple one-to-one binding. As usually defined, the kon is the rate constant with which the complex forms.

For this assay, the target named is His-tagged recombinant MIF (macrophage migration inhibitory factor), expressed in Escherichia coli from pQE30. Description: SPR, BIAcore 2000, His-tagged MIF on Sensor Chip NTA, TRX as analyte, 1:1 binding with drifting baseline model. On the technique in general: Surface plasmon resonance follows binding to a sensor surface in real time, without labels.
Sequence of His-tagged recombinant MIF (macrophage migration inhibitory factor), expressed in Escherichia coli from pQE30 (P14174 2-115): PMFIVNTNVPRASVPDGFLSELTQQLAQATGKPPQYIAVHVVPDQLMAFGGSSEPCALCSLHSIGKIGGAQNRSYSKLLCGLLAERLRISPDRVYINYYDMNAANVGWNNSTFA

As for Recombinant TRX (Ajinomoto Co., Inc.), the Kd was 9.96 nM and the kon worked out at 120 M⁻¹ s⁻¹.
